Laboratory results published in patent US20030082809A1 (University of California, published 2003).

Key:
Assay in all cases: cell-based or functional assay
[1] = target: PIF3:GAD fusion protein (PIF3-GAL4-activation-domain fusion) (Arabidopsis) (UniProt O80536)
[2] = target: GAD, GAL4-activation domain alone (UniProt P04386)
[3] = target: T1, PIF3:GAD fusion protein (PIF3-GAL4-activation-domain fusion) (Arabidopsis, UniProt O80536 1-524, limits assumed)
T1 sequence: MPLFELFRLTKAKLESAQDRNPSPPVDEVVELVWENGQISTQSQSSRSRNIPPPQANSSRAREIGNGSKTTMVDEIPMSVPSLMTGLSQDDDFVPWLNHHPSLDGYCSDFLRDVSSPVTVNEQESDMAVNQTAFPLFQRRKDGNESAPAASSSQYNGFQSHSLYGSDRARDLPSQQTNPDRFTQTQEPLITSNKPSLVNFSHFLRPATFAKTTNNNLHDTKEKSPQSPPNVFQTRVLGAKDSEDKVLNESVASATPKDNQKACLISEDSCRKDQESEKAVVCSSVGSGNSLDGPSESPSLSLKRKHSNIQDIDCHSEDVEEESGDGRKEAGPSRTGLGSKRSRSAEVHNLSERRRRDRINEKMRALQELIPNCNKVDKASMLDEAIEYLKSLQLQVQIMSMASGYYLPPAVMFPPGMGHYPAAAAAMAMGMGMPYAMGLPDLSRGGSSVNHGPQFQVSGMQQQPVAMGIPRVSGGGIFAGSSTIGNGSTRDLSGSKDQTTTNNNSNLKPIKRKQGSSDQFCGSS

Chain of GAD, GAL4-activation domain alone (P04386 768-881 limits assumed): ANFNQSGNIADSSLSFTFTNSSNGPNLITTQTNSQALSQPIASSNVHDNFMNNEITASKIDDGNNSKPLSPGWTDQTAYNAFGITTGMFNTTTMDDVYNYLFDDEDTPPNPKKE

## phyB(NT):GBD fusion protein, Pr form (PCB chromophore, in darkness or after far-red light) (from UniProt P14713 1-621; P04386 1-147)
[1]
  LacZ activity (M. U.), yeast two-hybrid liquid assay, Dark: 0.1 M. U.
  LacZ activity (M. U.), yeast two-hybrid liquid assay, Rp/FRp (red pulse followed at once by far-red pulse): 0.1 M. U.

## GBD, GAL4 DNA-binding domain alone (from UniProt P04386 1-147)
[2]
  LacZ activity (M. U.), yeast two-hybrid liquid assay, Dark: 0.1 M. U.
  LacZ activity (M. U.), yeast two-hybrid liquid assay, Rp: 0.2 M. U.
  LacZ activity (M. U.), yeast two-hybrid liquid assay, Rp/FRp: 0.2 M. U.

B1: phyB(NT):GBD fusion protein, Pfr form (PCB chromophore, after red light) (other, UniProt P14713 1-621, looked up)
chain: MVSGVGGSGGGRGGGRGGEEEPSSSHTPNNRRGGEQAQSSGTKSLRPRSNTESMSKAIQQYTVDARLHAVFEQSGESGKSFDYSQSLKTTTYGSSVPEQQITAYLSRIQRGGYIQPFGCMIAVDESSFRIIGYSENAREMLGIMPQSVPTLEKPEILAMGTDVRSLFTSSSSILLERAFVAREITLLNPVWIHSKNTGKPFYAILHRIDVGVVIDLEPARTEDPALSIAGAVQSQKLAVRAISQLQALPGGDIKLLCDTVVESVRDLTGYDRVMVYKFHEDEHGEVVAESKRDDLEPYIGLHYPATDIPQASRFLFKQNRVRMIVDCNATPVLVVQDDRLTQSMCLVGSTLRAPHGCHSQYMANMGSIASLAMAVIINGNEDDGSNVASGRSSMRLWGLVVCHHTSSRCIPFPLRYACEFLMQAFGLQLNMELQLALQMSEKRVLRTQTLLCDMLLRDSPAGIVTQSPSIMDLVKCDGAAFLYHGKYYPLGVAPSEVQIKDVVEWLLANHADSTGLSTDSLGDAGYPGAAALGDAVCGMAVAYITKRDFLFWFRSHTAKEIKWGGAKHHPEDKDDGQRMHPRSSFQAFLEVVKSRSQPWETAEMDAIHSLQLILRDSFKESMKLLSSIEQACDICRLKKLKCSKEKPKCAKCLKNNWECRYSPKTKRSPLTRAHLTEVESRLERLEQLFLLIFPREDLDMILKMDSLQDIKALLTGLFVQDNVNKDAVTDRLASVETDMPLTLRQHRISATSSSEESSNKGQRQLTVS
modifications: phycocyanobilin (PCB) chromophore attached to the phytochrome moiety (residue not stated); Pfr conformer after red light
[3]
  LacZ activity, fold induction 5 min after a 1 min saturating red-light pulse: 2 fold
  LacZ activity, fold induction 10 min after a 1 min saturating red-light pulse: 4 fold
  LacZ activity, fold induction 30 min after a 1 min saturating red-light pulse: 50 fold
  induction of LacZ expression above background by a single red-light pulse: 1000 fold
